These are literature values, as cited in paper PMC4078514, “A Bombesin-Shepherdin Radioconjugate Designed for Combined Extra- and Intracellular Targeting” (Pharmaceuticals, 2014).

The series addresses Hsp90 (Homo sapiens) (UniProt P07900).

pKd: −log10 of the molar value.

Chain of Shepherdin 79-83 (O15392 whole entry, looked up, tested part not stated): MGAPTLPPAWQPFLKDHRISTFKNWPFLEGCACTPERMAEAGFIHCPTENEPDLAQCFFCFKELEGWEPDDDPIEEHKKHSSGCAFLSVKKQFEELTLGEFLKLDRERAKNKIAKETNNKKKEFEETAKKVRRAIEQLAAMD

As usually defined, the pKd is the Kd on a negative log10 scale, so that one unit is a factor of ten. Take Shepherdin 79-83 (from UniProt O15392): the pKd is 7.10.
